According to paper PMC12112590:

Molecular target: S. cerevisiae RNA Polymerase II (Pol II) (S. cerevisiae) (UniProt P04050)

B1: full-length hNDF mutant MT1 (natural protein)
chain: MAAVSLRLGDLVWGKLGRYPPWPGKIVNPPKDLKKPRGKKCFFVKFFGTEDHAWIKVEQLKPYHAHKEEMIKINKGKRFQQAVDAVEEFLRRAKGKDQTSSHNSSDDKNRRNSSEERSRPNSGDEKRKLSLSEGKVKKNMAAAAARVSSGSSERGSKSPLKRAQEQSPRKRGRPPKDEKDLTIPESSTVKGMMAGPMAAFKWQPTASEPVKDADPHFHHFLLSQTEKPAVCYQAITKKLKICEEETGSTSIQAADSTAVNGSITPTDKKIGFLGLGLMGSGIVSNLLKMGHTVTVWNRTAEKCDLFIQEGARLGRTPAEVVSTCDITFACVSDPKAAKDLVLGPSGVLQGIRPGKCYVDMSTVDADTVTELAQVIVSRGGRFLEAPVSGNQQLSNDGMLVILAAGDRGLYEDCSSCFQAMGKTSFFLGEVGNAAKMMLIVNMVQGSFMATIAEGLTLAQVTGQSQQTLLDILNQGQLASIFLDQKCQNILQGNFKPDFYLKYIQKDLRLAIALGDAVNHPTPMAAAANEVYKRAKALDQSDNDMSAVYRAYIH
With B1 the transcription stimulation with calf thymus DNA and yeast Pol II ([α-32P]CTP incorporation), against wild-type hNDF was 50 % reduction.

B2: full-length hNDF mutant MT2 (residues 146–150) (natural protein)
chain: MAAVSLRLGDLVWGKLGRYPPWPGKIVNPPKDLKKPRGKKCFFVKFFGTEDHAWIKVEQLKPYHAHKEEMIKINKGKRFQQAVDAVEEFLRRAKGKDQTSSHNSSDDKNRRNSSEERSRPNSGDEKRKLSLSEGKVKKNMGEGKKAAAAASSERGSKSPLKRAQEQSPRKRGRPPKDEKDLTIPESSTVKGMMAGPMAAFKWQPTASEPVKDADPHFHHFLLSQTEKPAVCYQAITKKLKICEEETGSTSIQAADSTAVNGSITPTDKKIGFLGLGLMGSGIVSNLLKMGHTVTVWNRTAEKCDLFIQEGARLGRTPAEVVSTCDITFACVSDPKAAKDLVLGPSGVLQGIRPGKCYVDMSTVDADTVTELAQVIVSRGGRFLEAPVSGNQQLSNDGMLVILAAGDRGLYEDCSSCFQAMGKTSFFLGEVGNAAKMMLIVNMVQGSFMATIAEGLTLAQVTGQSQQTLLDILNQGQLASIFLDQKCQNILQGNFKPDFYLKYIQKDLRLAIALGDAVNHPTPMAAAANEVYKRAKALDQSDNDMSAVYRAYIH
B2 showed a transcription stimulation with calf thymus DNA and yeast Pol II ([α-32P]CTP incorporation), against wild-type hNDF of 50 % reduction.

B3: full-length hNDF mutant MT4 (residues 156–160) (natural protein)
chain: MAAVSLRLGDLVWGKLGRYPPWPGKIVNPPKDLKKPRGKKCFFVKFFGTEDHAWIKVEQLKPYHAHKEEMIKINKGKRFQQAVDAVEEFLRRAKGKDQTSSHNSSDDKNRRNSSEERSRPNSGDEKRKLSLSEGKVKKNMGEGKKRVSSGSSERGAAAAAKRAQEQSPRKRGRPPKDEKDLTIPESSTVKGMMAGPMAAFKWQPTASEPVKDADPHFHHFLLSQTEKPAVCYQAITKKLKICEEETGSTSIQAADSTAVNGSITPTDKKIGFLGLGLMGSGIVSNLLKMGHTVTVWNRTAEKCDLFIQEGARLGRTPAEVVSTCDITFACVSDPKAAKDLVLGPSGVLQGIRPGKCYVDMSTVDADTVTELAQVIVSRGGRFLEAPVSGNQQLSNDGMLVILAAGDRGLYEDCSSCFQAMGKTSFFLGEVGNAAKMMLIVNMVQGSFMATIAEGLTLAQVTGQSQQTLLDILNQGQLASIFLDQKCQNILQGNFKPDFYLKYIQKDLRLAIALGDAVNHPTPMAAAANEVYKRAKALDQSDNDMSAVYRAYIH
For B3, the transcription stimulation with calf thymus DNA and yeast Pol II ([α-32P]CTP incorporation), against wild-type hNDF was 50 % reduction.

B4: full-length hNDF mutant MT3 (natural protein)
chain: MAAVSLRLGDLVWGKLGRYPPWPGKIVNPPKDLKKPRGKKCFFVKFFGTEDHAWIKVEQLKPYHAHKEEMIKINKGKRFQQAVDAVEEFLRRAKGKDQTSSHNSSDDKNRRNSSEERSRPNSGDEKRKLSLSEGKVKKNMGEGKKRVSSGAAAAASKSPLKRAQEQSPRKRGRPPKDEKDLTIPESSTVKGMMAGPMAAFKWQPTASEPVKDADPHFHHFLLSQTEKPAVCYQAITKKLKICEEETGSTSIQAADSTAVNGSITPTDKKIGFLGLGLMGSGIVSNLLKMGHTVTVWNRTAEKCDLFIQEGARLGRTPAEVVSTCDITFACVSDPKAAKDLVLGPSGVLQGIRPGKCYVDMSTVDADTVTELAQVIVSRGGRFLEAPVSGNQQLSNDGMLVILAAGDRGLYEDCSSCFQAMGKTSFFLGEVGNAAKMMLIVNMVQGSFMATIAEGLTLAQVTGQSQQTLLDILNQGQLASIFLDQKCQNILQGNFKPDFYLKYIQKDLRLAIALGDAVNHPTPMAAAANEVYKRAKALDQSDNDMSAVYRAYIH
For B4, the transcription stimulation with calf thymus DNA and yeast Pol II ([α-32P]CTP incorporation), against wild-type hNDF was 50 % reduction.
